Where two headings read alike, the source gives them in different places. One block for each molecule: values may come before it.
What was measured:
[1] = biological target: Chimera‐Long (human DHFR‐TYMS bifunctional chimeric enzyme with 20 amino acid linker) (human); experiment: SEC; Superdex 200 10/300, 0.1 M K-phosphate pH 7.5, calibrated with protein standards; IMAC fractions of the Chimera constructs
[2] = biological target: Chimera‐Short (human DHFR‐TYMS bifunctional chimeric enzyme with 10 amino acid linker) (human); experiment: as above
[3] = biological target: Chimera‐Long (human DHFR‐TYMS bifunctional chimeric enzyme with 20 amino acid linker) (human); experiment: SPR; Chimera-Long amine-coupled on a COOH2 chip (735 RU on Ch1, 175 RU on Ch3), SHMT1 as analyte 2.66-85 uM, 25 °C, 10 mM Hepes pH 7.4, 150 mM NaCl, 0.005% Tween-20; 1 : 1 bimolecular interaction model
[4] = biological target: Chimera‐Long (human DHFR‐TYMS bifunctional chimeric enzyme with 20 amino acid linker) (human); experiment: as above; remark: listed apart in the source
[5] = biological target: Chimera‐Long (human DHFR‐TYMS bifunctional chimeric enzyme with 20 amino acid linker) (human); experiment: BLI; Chimera held by mouse anti-DHFR on a Protein-A biosensor, SHMT1 as analyte 1-30 uM, kinetic titration series, kinetic buffer, 25 °C; two-exponential fit, heterogeneous binding model with two binding events

stoichiometry N [1]: 2
Molecule: Chimera‐Long (human DHFR‐TYMS bifunctional chimeric enzyme with 20 amino acid linker)

stoichiometry N [2]: 2
Molecule: Chimera‐Short (human DHFR‐TYMS bifunctional chimeric enzyme with 10 amino acid linker)

Kd [3]: 2.9 µM | Kd [4]: 2.5 µM | koff [4]: 0.0025 s⁻¹ | kon [4]: 470 M⁻¹ s⁻¹ | KD, binding 1 [5]: 16.4 µM | KD, binding 2 [5]: 13.5 µM | koff, binding 1 [5]: 0.2 s⁻¹ | koff, binding 2 [5]: 0.02 s⁻¹ | kon, binding 1 [5]: 14000 M⁻¹ s⁻¹ | kon, binding 2 [5]: 1600 M⁻¹ s⁻¹
B1: serine hydroxymethyltransferase (SHMT1), purified recombinant, tetrameric (enzyme)
chain: DADLWSSHDKMLAQPLKDSDVEVYNIIKKESNRQRVGLELIASENFASRAVLEALGSCLNNKYSEGYPGQRYYGGTEFIDELETLCQKRALQAYKLDPQCWGVNVQPYSGSPANFAVYTALVEPHGRIMGLDLPDGGHLTHGFMTDKKKISATSIFFESMPYKVNPDTGYINYDQLEENARLFHPKLIIAGTSCYSRNLEYARLRKIADENGAYLMADMAHISGLVAAGVVPSPFEHCHVVTTTTHKTLRGCRAGMIFYRKGVKSVDPKTGKEILYNLESLINSAVFPGLQGGPHNHAIAGVAVALKQAMTLEFKVYQHQVVANCRALSEALTELGYKIVTGGSDNHLILVDLRSKGTDGGRAEKVLEACSIACNKNTCPGDRSALRPSGLRLGTPALTSRGLLEKDFQKVAHFIHRGIELTLQIQSDTGVRATLKEFKERLAGDKYQAAVQALREEVESFASLFPLPGL

— article PMC9299187
